This note sets out measurements from patent publication US20080249606A1.

This experiment addresses endostatin incubated overnight with DXS500k (human) (UniProt P39060). Kind of experiment: ELISA, protein/DXS500k mixture immobilized on Greiner Microlon plate, tPA in 10 mM εACA, detection with antibody 374b.

Sequence of endostatin incubated overnight with DXS500k (human) (P39060 1572-1754): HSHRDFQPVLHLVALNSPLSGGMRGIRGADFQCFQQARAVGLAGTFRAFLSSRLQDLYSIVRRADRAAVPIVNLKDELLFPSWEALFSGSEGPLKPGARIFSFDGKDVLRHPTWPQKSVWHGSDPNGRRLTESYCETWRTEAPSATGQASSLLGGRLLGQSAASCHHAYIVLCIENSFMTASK
Sequence of tissue-type plasminogen activator (tPA, Actilyse, Boehringer-Ingelheim) (P00750 36-562 limits assumed): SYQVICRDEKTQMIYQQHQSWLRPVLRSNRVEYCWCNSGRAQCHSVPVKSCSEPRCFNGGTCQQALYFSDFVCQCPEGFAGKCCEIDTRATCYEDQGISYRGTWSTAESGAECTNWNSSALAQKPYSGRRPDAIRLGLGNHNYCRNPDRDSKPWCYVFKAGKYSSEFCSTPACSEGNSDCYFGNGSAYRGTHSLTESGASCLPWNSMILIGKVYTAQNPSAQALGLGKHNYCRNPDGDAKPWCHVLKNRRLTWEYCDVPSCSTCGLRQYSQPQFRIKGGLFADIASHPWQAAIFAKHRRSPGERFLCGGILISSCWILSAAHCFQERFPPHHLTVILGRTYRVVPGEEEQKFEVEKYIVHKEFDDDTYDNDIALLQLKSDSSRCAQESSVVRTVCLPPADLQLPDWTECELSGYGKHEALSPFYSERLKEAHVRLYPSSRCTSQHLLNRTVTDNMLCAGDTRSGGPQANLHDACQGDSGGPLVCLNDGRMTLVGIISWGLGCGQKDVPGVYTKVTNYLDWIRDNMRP

Turning to “tissue-type plasminogen activator (tPA, Actilyse, Boehringer-Ingelheim) (from UniProt P00750 36-562) (enzyme)”, the factor of increase of tPA binding against the protein incubated with buffer only amounted to 10.5 fold.
